Laboratory results published in the DeepSol protein solubility set.

Experiment: soluble on expression in E. coli; label from the status in PepcDB or PDB records

Sequence	soluble on expression in E. coli
MAPPSQDVLKEIFNLYDEELDGKIDGTQVGDVARAAGLKPTQAMVTKAAGQEFKRKGEKRLTFEEWLPMYEQLAKEKEQGTYADFYEGLKVFDKEETGKILAAELRHILLALGERLSADEADELLKGVEDGEGMVKYEDFIKKVLAGPFPDQD	not soluble
MAPPTFADLGKSAKDLFNKGYNFGFLKIDSTTRAGDNKEVEFKSAASHNIGSGKLGGNLDVKYKIPQYGITLTEKWNTENQLGTVIEVNEQFGRGLKVTLDSLYAPHAGKRSGKVKLDWALPTARVTADVGVTSAPVINAAGVFSRDGWLIGAAATFDSSSNKLAATSLAFGHSTPQYTLHSFVINSTDFGASLYHKVASNVEVGTQLGWKVGGNGADYALATKYAPSRDLTVRAKVNSSSQVAVAATHSLSPALKLTLSTQFNLAANDAHKFGLGLEFDPSN	not soluble
MAQAEEINVATVNNGDMIIMQKLSSAWEKETGNKINWIVLEENVLRERVTTDIATNGGQFDIMTIGGYEAPIWGKQGWLAPVDDLGDDYDYADLLDPIKKGLTVDGKLYAVPFYTESSFTLYRKDLFDAAGLKMPDNPTYDQIKDFAAKLTDKSKQQYGICLRGKPGWGENMAFLGTMINTYGGRWFDMDWKPQLTSAPWKKAIADYVALMTSYGPPGAAANGFNENQTLFSSGRCAMWIDATSAAGRVYDPKQSQVADKTGFTRAPVEVTPNGSSWSWSWNLAIPNSTKKLETAKSFVKWATSKAYVKTVGESEGWVAVPPGTRKSTYELPEYKKAAPFADTVLKAIMSADPSKPTKDPVPYTGVQFVAIPEFQSIGTVVGQQIAAALSGQQTVDAALEGAQKQVERDMTRAGYIK	not soluble
MAQASPPRPERVLGASSPEARPAQEALLLPTGVFQVAEKMEKRTCALCPKDVEYNVLYFAQSENIAAHENCLLYSSGLVECEDQDPLNPDRSFDVESVKKEIQRGRKLKCKFCHKRGATVGCDLKNCNKNYHFFCAKKDDAVPQSDGVRGIYKLLCQQHAQFPIIAQSAKFSGVKRKRGRKKPLSGNHVQPPETMKCNTFIRQVKEEHGRHTDATVKVPFLKKCKEAGLLNYLLEEILDKVHSIPEKLMDETTSESDYEEIGSALFDCRLFEDTFVNFQAAIEKKIHASQQRWQQLKEEIELLQDLKQTLCSFQENRDLMSSSTSISSLSY	not soluble
MAQDGDRHHIFVSAPPPPPPSSSIPAPSQPNRLEKEPLIDEETDMIDESRATYWKGCEFLKASGLYSSKCELV	not soluble
MAQMYFYYSAMNAGKSTTLLQSSFNYQERGMTPVIFTAALDDRYGVGKVSSRIGLQSDAHLFRPDTNLYQEIAALHEVEKRHCILIDECQFLSKEQVYQLTEVVDKLHIPVLCYGLRTDFLGELFEGSKYLLSWADKLVELKTICHCGRKANMVIRTDEHGVAIKEGDQVAIGGNDRYVSVCRQHYKEALGKLEHHHHHH	soluble
MAQQHNDWADITSLDTFPKVLQHNAKHWPEQVAMREKEFGIWREFTWQDYENRVKWMALALQDLGIGEQDVVGLLGDNRPEWVWGELAAHAIKGYSLGIYQDSMHEEVAYLINYAKAKVVIAEDEEQCDKLLELGDEIPSVEYIIYCDPRGMRKYDDPRLIDVEQVYKKGQLIDKADPDKYLNMVAATKGSDLSILCTTSGTTSKPKLAQLHSGTFLDHCAAYLRADPRSPGDNYVSVLPLPWIMEQVYVVGQALISRQIVNFVEEQETMMSDLREIGPNFVLLAPRVWENIVADVSARMMDSTPFKQKMYKLGMSLANKALDQGKRSKLAEWILLRA	not soluble
MAQQTNVAGQKTEKQRKAPFRADHVGSLLRSVPVKEARQKKAAGEMTAEQLRDIENQEITRIVEKQKEIGLDVVTDGEFRRSWWHYDFLEGLDGVEPFIPAEGIQFHNTKTKARSIKVTGKLDFTSHPALGDYQFLHEIAGNATPKLTIPSPNMLFFGEKADKGIYDDQEEYFHDMAQAYKKAIKAFYDAGCRYLQLDDTSWSLFFEDKGREVVRALGGDPETLPAIFAKTINDAVADRPDDLTITMHICRGNFRSTWAASGGYDAVAETILDGLNLDGLFLEYDDDRSGNFDPLRFVKRKDLQIVLGLITSKYGELENPEDVNAVSMKPRVLSAWTSYALEHHHHHH	not soluble
MAQRLDGARFRYLNEQLYSGPSSAAQRLFQEDPEAFLLYHRGFQSQVKKWPLQPVDRIARDLRQRPASLVVADFGCGDCRLASSIRNPVHCFDLASLDPRVTVCDMAQVPLEDESVDVAVFCLSLMGTNIRDFLEEANRVLKPGGLLKVAEVSSRFEDVRTFLRAVTKLGFKIVSKDLTNSHFFLFDFQKTGPPLVGPKAQLSGLQLQPCLYKRR	soluble
MAQTDKPTCIPPELPKMLKEFAKAAIRVQPQDLIQWAADYFEALSRGETPPVRERSERVALCNRAELTPELLKILHSQVAGRLIIRAEELAQMWKVVNLPTDLFNSVMNVGRFTEEIEWLKFLALACSALGVTITKTLKIVCEVLSCDHNGGSPRIPFSTFQFLYTYIAKVDGEISASHVSRMLNYMEQEVIGPDGIITVNDFTQNPRVQLE	soluble
MAREATIARTTNETSIQLSLSLDGEGKAELETGVPFLTHMLDLFAKHGQFDLYIEAKGDTHIDDHHTTEDIGICLGQAIKEALGDKKGIKRYGNAFVPMDDALAQVVIDLSNRPHFEFRGEFPATKVGAFDVELVHEFLWKLALEARMNLHVIVHYGRNTHHMIEAVFKALGRALDEATMIDPRVKGVPSTKGML	not soluble
MARIFTYPLARKRIRMHKPDDKQYDATYFTRWYRDAGLADPARLRRKVALAVAQAEYYLERPIRTVLDVGCGEAAWRAPLLALRPKLQYLGFDSSEYAVQRYGRSRQIHPARFGDFAWLRPCAPVDLLICSDVLHYVPTREFNQGLPGLAEMCAGVAFLETFAEEDAFEGDHEGFQARPARWYRRRFASVGFTALGSHCWLSPQLRGETAALEHS	soluble
MARIIVVTSGKGGVGKTTSSAAIATGLAQKGKKTVVIDFDIGLRNLDLIMGCERRVVYDFVNVIQGDATLNQALIKDKRTDNLYILPASQTRDKDALTKEGVEKVLNDLGEMNFEFVVCDSPAGIESGALMALYFADEAVITTNPEVSSVRDSDRILGILSSKSRRAENSQEPIKEHLLLTRYNPGRVNRGDMLSMEDVLDILRIPLVGVIPEDQSVLRASNQGEPVILDKESDAGKAYEDTVDRLLGEERPFRFVEEEKKGFLKRLFGG	not soluble
MARKKKTRRITDIMPIRKADKKIDITKARSGKKLTCYELDAKAREDKKKRKHKGLASGSRHSAVEEKANKLQNEIKDPKIGSKKKIPLVVEFVNKPEKGQVIPVIKQVKKQDPMKELENLENNEILNELLDALDAGKTISKSDQQFVDECLDRISELMEELGIEDEDESEDDLYRTFERMDINQFR	not soluble
MARLAAFDMDGTLLMPDHHLGEKTLSTLARLRERDITLTFATGRHALEMQHILGALSLDAYLITGNGTRVHSLEGELLHRDDLPADVAELVLYQQWDTRASMHIFNDDGWFTGKEIPALLQAFVYSGFRYQIIDVKKMPLGSVTKICFCGDHDDLTRLQIQLYEALGERAHLCFSATDCLEVLPVGCNKGAALTVLTQHLGLSLRDCMAFGDAMNDREMLVSVGSGFIMGNAMPQLRAELPHLPVIGHCRNQAVSHYLTHWLDYPHLPYSPE	soluble
MARLFTLSESKYYLMALDAGTGSIRAVIFDLEGNQIAVGQAEWRHLAVPDVPGSMEFDLNKNWQLACECMRQALHNAGIAPEYIAAVSACSMREGIVLYNNEGAPIWACANVDARAAREVSELKELHNNTFENEVYRATGQTLALSAIPRLLWLAHHRSDIYRQASTITMISDWLAYMLSGELAVDPSNAGTTGLLDLTTRDWKPALLDMAGLRADILSPVKETGTLLGVVSSQAAELCGLKAGTPVVVGGGDVQLGCLGLGVVRPAQTAVLGGTFWQQVVNLAAPVTDPEMNVRVNPHVIPGMVQAESISFFTGLTMRWFRDAFCAEEKLIAERLGIDTYTLLEEMASRVPPGSWGVMPIFSDRMRFKTWYHAAPSFINLSIDPDKCNKATLFRALEENAAIVSACNLQQIADFSNIHPSSLVFAGGGSKGKLWSQILADVSGLPVNIPVVKEATALGCAIAAGVGAGIFSSMAETGERLVRWERTHTPDPEKHELYQDSRDKWQAVYQDQLGLVDHGLTTSLWKAPGL	not soluble
